# Measurements as given in patent publication US20220411504A1 (Janssen / Centocor, published 2022).
# Read-outs that look alike come from different tables or passages of the source.
# T1: DLL3 on tumor cells (SHP-77, HCC1833, G361) (human, UniProt Q9NYJ7 27-618)
# T1 sequence: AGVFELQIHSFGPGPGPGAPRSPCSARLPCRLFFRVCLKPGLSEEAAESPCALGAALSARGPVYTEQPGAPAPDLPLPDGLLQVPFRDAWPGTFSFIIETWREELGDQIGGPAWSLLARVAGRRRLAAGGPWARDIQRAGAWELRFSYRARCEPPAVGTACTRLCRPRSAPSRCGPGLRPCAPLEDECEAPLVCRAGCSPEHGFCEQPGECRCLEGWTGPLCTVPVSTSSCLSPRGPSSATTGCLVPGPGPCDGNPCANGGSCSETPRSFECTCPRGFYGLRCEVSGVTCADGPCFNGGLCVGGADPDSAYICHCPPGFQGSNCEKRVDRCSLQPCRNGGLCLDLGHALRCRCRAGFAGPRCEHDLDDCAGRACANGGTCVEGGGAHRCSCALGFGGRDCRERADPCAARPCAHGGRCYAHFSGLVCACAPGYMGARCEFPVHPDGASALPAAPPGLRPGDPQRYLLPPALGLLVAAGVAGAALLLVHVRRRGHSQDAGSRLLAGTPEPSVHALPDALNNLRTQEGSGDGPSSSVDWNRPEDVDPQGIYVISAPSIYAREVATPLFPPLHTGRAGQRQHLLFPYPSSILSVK
# T2: recombinant human DLL3 (human, UniProt Q9NYJ7 27-492)
# T2 construct: also called DLL3 antigen; Delta-like protein 3
# T2 sequence: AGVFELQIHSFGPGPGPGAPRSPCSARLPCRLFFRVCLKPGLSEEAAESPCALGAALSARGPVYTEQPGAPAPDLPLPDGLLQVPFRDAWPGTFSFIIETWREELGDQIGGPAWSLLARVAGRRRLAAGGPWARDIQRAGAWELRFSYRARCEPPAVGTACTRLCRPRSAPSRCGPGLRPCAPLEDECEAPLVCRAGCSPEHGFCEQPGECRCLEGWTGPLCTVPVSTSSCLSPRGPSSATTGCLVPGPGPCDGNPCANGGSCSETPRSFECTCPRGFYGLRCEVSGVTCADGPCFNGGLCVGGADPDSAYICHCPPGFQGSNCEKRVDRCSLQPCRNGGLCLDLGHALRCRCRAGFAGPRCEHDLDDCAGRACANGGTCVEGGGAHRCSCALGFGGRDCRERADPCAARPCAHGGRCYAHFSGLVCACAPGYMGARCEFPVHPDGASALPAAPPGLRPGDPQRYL
# How the values were obtained:
# [1] = target: T1, DLL3 on tumor cells (SHP-77, HCC1833, …); assay: cell-based or functional assay
# [2] = target: T3, Human CD3 epsilon (CD3ε) of the T cell receptor complex on cells (human, UniProt P07766 23-207); assay: flow cytometry on human pan T cells
# T3 construct: On Jurkat cells and primary human (pan) T cells; also called T-cell surface glycoprotein CD3 epsilon chain; T3E
# T3 sequence (P07766 23-207 limits assumed, one chain of several): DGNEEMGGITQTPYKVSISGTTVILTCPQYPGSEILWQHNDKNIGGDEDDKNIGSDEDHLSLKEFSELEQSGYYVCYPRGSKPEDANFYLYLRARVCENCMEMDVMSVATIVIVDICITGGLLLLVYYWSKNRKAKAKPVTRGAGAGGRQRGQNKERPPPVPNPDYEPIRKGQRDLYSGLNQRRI
# Description: Human Pan T Cells (Biological Specialty Corporation, Colmar, Pa.) were thawed and transferred to a 15 mL conical with DPBS. The cells were centrifuged 1300 rpm for 5 minutes. DPBS was aspirated and cells were re-suspended in DPBS. The cells were counted using the Vi-cell XR cell viability analyzer and were plated at 100K/well in 100 uL DPBS. The plate was centrifuged 1²⁰⁰ rpm for 3 minutes and washed 2× with DPBS. Cells were stained with Violet Live/Dead stain (Thermo-Fisher) and incubated at RT in the dark for 25 min. The cells were centrifuged and washed 2× with FACS staining buffer (BD Pharmingen). Test antibodies were diluted to a final starting concentration of 100 nM in FACS staining buffer and 3-fold serial dilutions were prepared from the starting concentration for a total of 10 dilution points. The serially diluted test antibodies (100 uL/well) were added to the cells and incubated for 30 min at 37°. […] Cells were washed 2× with FACS staining buffer and re-suspended in 100 uL FACS Buffer. Cells were run on BD Celesta using FACS Diva software and analyzed using FlowJo software.
# [3] = target: T2, recombinant human DLL3; assay: SPR (Biacore T200), antibody captured by goat anti-Fc, DLL3 titrated
# Description: The binding affinity of anti-DLL3×CD3 antibodies to the recombinant human DLL3 was determined by surface plasmon resonance (SPR) using a Biacore T200 instrument. […] The association was monitored for 2 minutes and the and dissociation for 5 or 60 minutes, using a flow rate of 100 μL/min. Raw binding data was referenced by subtracting the analyte binding signals from blanks and analyzed using a 1:1 Langmuir binding model using the Biacore Insight evaluation software to obtain the kinetics which were used to calculate the binding affinity.
# The antibodies were captured using an anti-human Fc antibody and the antigens were injected in solution.
# [4] = target: T2, recombinant human DLL3; assay: as above; remark: listed apart in the source
# Description: The association was monitored for 3 minutes and the dissociation for 60 minutes, using a flow rate of 50 μL/min. Raw binding data was referenced by subtracting the analyte binding signals from blanks and analyzed using a 1:1 Langmuir binding model using the Biacore Insight evaluation software to obtain the kinetics which were used to calculate the binding affinity.
# [5] = target: T4, human Kallikrein-2 6-His protein (soluble hK2) (human, UniProt P20151 18-261, limits assumed); assay: SPR, bispecific captured by anti-Fc, soluble hK2 injected
# T4 construct: The assays say only 'soluble hK2' or 'human KLK2 antigen'; also called KLK2; kallikrein related peptidase 2
# T4 sequence (P20151 other isoform, or with tags, fused parts or gaps limits assumed): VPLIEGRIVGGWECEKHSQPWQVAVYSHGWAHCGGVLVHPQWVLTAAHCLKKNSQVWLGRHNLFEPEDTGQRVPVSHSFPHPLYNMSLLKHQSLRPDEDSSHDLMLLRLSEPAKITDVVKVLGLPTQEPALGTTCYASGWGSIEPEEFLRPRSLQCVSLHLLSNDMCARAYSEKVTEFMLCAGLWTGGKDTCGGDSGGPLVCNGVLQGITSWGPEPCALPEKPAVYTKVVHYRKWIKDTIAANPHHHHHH
binding result [2],Kd [3],Kd [4],Kd [5],Binder,"Cytotoxicity, % lysis of SHP-77 cells (whole PBMCs, 1:1 ET, 30 nM) [1]"
binds,0.024 nM,0.024 nM,–,"DL3B585 (bispecific antibody, human IgG1, lambda, L234A L235A, also called CD3B376-Fab; DL3B279-LH-scFv) scFv: DIQMTQSPSSLSASVGDRVTITCRASQGISNYLAWFQQKPGKAPKSLIYAASSLQSGVPSKFSGSGSGTDFTLTISSLQPEDFATYYCQQYNSYPYTFAQGTKLEIKGGSEGKSSGSGSESKSTGGSQVQLVQSGAEVKKPGASVKVSCKASGNTFTNYYIHWVRQAPGQGLEWMGIINPSGGSTSYAQKLQGRMTMTRDTSTSTVYMELSSLRSEDTAVYFCARQGPFIGDAFDIWGQGTMVTVSSEPKSSDKTHTCPPCPAPEAAGGPSVFLFPPKPKDTLMISRTPEVTCVVVSVSHEDPEVKFNWYVDGVEVHNAKTKPREEQYNSTYRVVSVLTVLHQDWLNGKEYKCKVSNKALPAPIEKTISKAKGQPREPQVYVLPPSREEMTKNQVSLLCLVKGFYPSDIAVEWESNGQPENNYLTWPPVLDSDGSFFLYSKLTVDKSRWQQGNVFSCSVMHEALHNHYTQKSLSLS heavy: QVQLQQSGPRLVRPSQTLSLTCAISGDSVFNNNAAWSWIRQSPSRGLEWLGRTYYRSKWLYDYAVSVKSRITVNPDTSRNQFTLQLNSVTPEDTALYYCARGYSSSFDYWGQGTLVTVSSASTKGPSVFPLAPSSKSTSGGTAALGCLVKDYFPEPVTVSWNSGALTSGVHTFPAVLQSSGLYSLSSVVTVPSSSLGTQTYICNVNHKPSNTKVDKKVEPKSCDKTHTCPPCPAPEAAGGPSVFLFPPKPKDTLMISRTPEVTCVVVSVSHEDPEVKFNWYVDGVEVHNAKTKPREEQYNSTYRVVSVLTVLHQDWLNGKEYKCKVSNKALPAPIEKTISKAKGQPREPQVYVYPPSREEMTKNQVSLTCLVKGFYPSDIAVEWESNGQPENNYKTTPPVLDSDGSFALVSKLTVDKSRWQQGNVFSCSVMHEALHNHYTQKSLSLSPG light: QSALTQPASVSGSPGQSITISCTGTSSNIGTYKFVSWYQQHPDKAPKVLLYEVSKRPSGVSSRFSGSKSGNTASLTISGLQAEDQADYHCVSYAGSGTLLFGGGTKLTVLGQPKAAPSVTLFPPSSEELQANKATLVCLISDFYPGAVTVAWKADSSPVKAGVETTTPSKQSNNKYAASSYLSLTPEQWKSHRSYSCQVTHEGSTVEKTVAPTECS",58.1%
binds,–,0.033 nM,–,"D3C3B80 (bispecific antibody, human IgG1, lambda, L234A L235A, also called C3C3B80) scFv: DIQMTQSPSSLSASVGDRVTITCRASQGISNYLAWFQQKPGKAPKSLIYAASSLQSGVPSKFSGSGSGTDFTLTISSLQPEDFATYYCQQYNSYPYTFGQGTKLEIKGGSEGKSSGSGSESKSTGGSQVQLVQSGAEVKKPGASVKVSCKASGQTFTNYYIHWVRQAPGQGLEWMGIINPSGGSTSYAQKLQGRMTMTRDTSTSTVYMELSSLRSEDTAVYFCARQGPFIGDAFDIWGQGTTVTVSSEPKSSDKTHTCPPCPAPEAAGGPSVFLFPPKPKDTLMISRTPEVTCVVVSVSHEDPEVKFNWYVDGVEVHNAKTKPREEQYNSTYRVVSVLTVLHQDWLNGKEYKCKVSNKALPAPIEKTISKAKGQPREPQVYVLPPSREEMTKNQVSLLCLVKGFYPSDIAVEWESNGQPENNYLTWPPVLDSDGSFFLYSKLTVDKSRWQQGNVFSCSVMHEALHNHYTQKSLSLSPGK heavy: QVQLQQSGPRLVRPSQTLSLTCAISGDSVFNNNAAWSWIRQSPSRGLEWLGRTYYRSKWLYDYAVSVKSRITVNPDTSRNQFTLQLNSVTPEDTALYYCARGYSSSFDYWGQGTLVTVSSASTKGPSVFPLAPSSKSTSGGTAALGCLVKDYFPEPVTVSWNSGALTSGVHTFPAVLQSSGLYSLSSVVTVPSSSLGTQTYICNVNHKPSNTKVDKKVEPKSCDKTHTCPPCPAPEAAGGPSVFLFPPKPKDTLMISRTPEVTCVVVSVSHEDPEVKFNWYVDGVEVHNAKTKPREEQYNSTYRVVSVLTVLHQDWLNGKEYKCKVSNKALPAPIEKTISKAKGQPREPQVYVYPPSREEMTKNQVSLTCLVKGFYPSDIAVEWESNGQPENNYKTTPPVLDSDGSFALVSKLTVDKSRWQQGNVFSCSVMHEALHNHYTQKSLSLSPGK light: QSALTQPASVSGSPGQSITISCTGTSSNIGTYKFVSWYQQHPDKAPKVLLYEVSKRPSGVSSRFSGSKSGNTASLTISGLQAEDQADYHCVSYAGSGTLLFGGGTKLTVLGQPKAAPSVTLFPPSSEELQANKATLVCLISDFYPGAVTVAWKADSSPVKAGVETTTPSKQSNNKYAASSYLSLTPEQWKSHRSYSCQVTHEGSTVEKTVAPTECS",–
–,–,–,0.14 nM,"KL2B242 Fab (arm of a hK2/CD3 bispecific, Table 40) (bispecific antibody) chain 1: QVQLQESGPGLVKPSETLSLTCTVSGGSISSYYWSWLRQPAGSGLEWIGRLYVSGFTNYNPSLKSRVTLSLDPSRNQLSLKLSSVTAADTAVYYCAGDSGNYWGWFDPWGQGTLVTVSSASTKGPSVFPLAPSSKSTSGGTAALGCLVKDYFPEPVTVSWNSGALTSGVHTFPAVLQSSGLYSLSSVVTVPSSSLGTQTYICNVNHKPSNTKVDKKVEPKSCDKTHTCPPCPAPEAAGGPSVFLFPPKPKDTLMISRTPEVTCVVVSVSHEDPEVKFNWYVDGVEVHNAKTKPREEQYNSTYRVVSVLTVLHQDWLNGKEYKCKVSNKALPAPIEKTISKAKGQPREPQVYVLPPSREEMTKNQVSLLCLVKGFYPSDIAVEWESNGQPENNYLTWPPVLDSDGSFFLYSKLTVDKSRWQQGNVFSCSVMHEALHNHYTQKSLSLSPG chain 2: SYELTQPPSVSVSPGETASITCSGDQLGENYASWYQQKPGQSPVLVIYQDSKRPSGIPERFSGSNSGNTATLTISGTQALDEADYYCQAWDNSIVVFGGGTKLTVLGQPKAAPSVTLFPPSSEELQANKATLVCLISDFYPGAVTVAWKADSSPVKAGVETTTPSKQSNNKYAASSYLSLTPEQWKSHRSYSCQVTHEGSTVEKTVAPTECS chain 3: DIQMTQSPSSLSASVGDRVTITCRARQSIGTAIHWYQQKPGKAPKLLIKYASESISGVPSRFSGSGSGTDFTLTISSLQPEDFATYYCQQSGSWPYTFGQGTKLEIKGGSEGKSSGSGSESKSTGGSEVQLVESGGGLVKPGGSLRLSCAASGFTFSRYNMNWVRQAPGKGLEWVSSISTSSNYIYYADSVKGRFTFSRDNAKNSLDLQMSGLRAEDTAIYYCTRGWGPFDYWGQGTLVTVSSEPKSSDKTHTCPPCPAPEAAGGPSVFLFPPKPKDTLMISRTPEVTCVVVSVSHEDPEVKFNWYVDGVEVHNAKTKPREEQYNSTYRVVSVLTVLHQDWLNGKEYKCKVSNKALPAPIEKTISKAKGQPREPQVYVYPPSREEMTKNQVSLTCLVKGFYPSDIAVEWESNGQPENNYKTTPPVLDSDGSFALVSKLTVDKSRWQQGNVFSCSVMHEALHNHYTQKSLSLSPG",–
